Data taken from patent US20100260765A1 (AstraZeneca / MedImmune, published 2010).

Key:
[1] = molecular target: T1, human KDR (human, UniProt P35968 20-1356); assay: cell-based or functional assay
[2] = molecular target: T1, human KDR; assay: cell-based or functional assay; remark: listed apart in the source
[3] = molecular target: T2, mouse KDR (Flk-1)/Fc (Cat. #443-KD/CF, R&D Systems, Inc.) (mouse, UniProt P35918 20-762); assay: ELISA, Flk-1 coat 5 ug/mL, antibody 1 ug/mL
T2 construct: Bought reagent; also called mouse VEGFR2; KDR mouse ortholog; not shown: Fc of the bought fusion protein
Experimental: (§1) The cross-reactivity of purified antibodies was tested against KDR mouse ortholog KDR mouse ortholog (mouse VEGFR2, or Flk-1) and human VEGFR1 (Flt-1). The ability of the antibodies to bind soluble KDR Ig4-7 domain and to the entire KDR extracellular domain (ECD) was also measured.
(§2) Cross-reactivity experiments were carried out and measured using an ELISA based assay as described in Example 6. […] Antibody controls included IgG1 and IgG4 (Sigma-Aldrich, Cat. #15154 and #14639, respectively).

[4] = molecular target: T2, mouse KDR (Flk-1)/Fc (Cat. #443-KD/CF, …); assay: ELISA, Flk-1 coat 5 ug/mL, antibody 0.1 ug/mL
Experimental: as §1, §2

[5] = molecular target: T3, whole KDR-ECD (Cat. # 676490, Calbiochem) (human, UniProt P35968 20-764); assay: ELISA, KDR-ECD coat 5 ug/mL, antibody 1 ug/mL
T3 construct: extracellular domain; Bought soluble protein; also called soluble KDR; VEGF Receptor 2 D1-7
Experimental: as §1, §2

[6] = molecular target: T2, mouse KDR (Flk-1)/Fc (Cat. #443-KD/CF, …); assay: ELISA, Flk-1 coat 5 ug/mL, antibody 0.01 ug/mL
Experimental: as §1, §2

[7] = molecular target: T3, whole KDR-ECD (Cat. # 676490, …); assay: ELISA, KDR-ECD coat 5 ug/mL, antibody 0.1 ug/mL
Experimental: as §1, §2

[8] = molecular target: T3, whole KDR-ECD (Cat. # 676490, …); assay: ELISA, KDR-ECD coat 5 ug/mL, antibody 0.01 ug/mL
Experimental: as §1, §2

[9] = molecular target: T4, soluble KDR Ig4-7 domain (human, UniProt P35968 328-764); assay: ELISA, KDR Ig4-7 coat (1:1 diln.), antibody 1 ug/mL
T4 construct: domain: Ig4-7 domain; also called b-KDRIg4-7-myc-his; Ig4-7 domain of KDR; not shown: myc-his tag of the pSecTag construct
Experimental: as §1, §2

[10] = molecular target: T4, soluble KDR Ig4-7 domain; assay: ELISA, KDR Ig4-7 coat (1:1 diln.), antibody 0.1 ug/mL
Experimental: as §1, §2

[11] = molecular target: T5, cynomolgus KDR (cynomolgus monkey, UniProt A0A2K5VE63 20-1356); assay: FACS on Cyno KDR/293T transfectants, antibody 5 ug/mL
T5 construct: whole, on cells; also called Cyno KDR
Experimental: The binding of purified antibodies to cell-bound cynomolgus KDR (with parental cells as negative control) was tested by FACS analysis in this assay.
Cynomolgus KDR was cloned in 3 pieces. One piece was PCR amplified from cynomolgus lung cDNA, and the remaining two pieces were PCR amplified from cynomolgus kidney cDNA. The three PCR products were inserted into pCR3.1 Bid vector. […] Transfected cells were seeded at 50,000 cells/well and incubated with 5 μg/mL of candidate antibody for one hour at 4° C. The cells were then washed and incubated with secondary antibody (Cy5-conjugated goat anti-human antibody, or Cy5-conjugated rabbit anti-goat antibody, plus 7-Amino-Actinomycin (7AAD)) for 15 minutes at 4° C. Binding between cynomolgus KDR and purified antibody was detected by FACS analysis.

[12] = molecular target: T4, soluble KDR Ig4-7 domain; assay: ELISA, KDR Ig4-7 coat (1:1 diln.), antibody 0.01 ug/mL
Experimental: as §1, §2

[13] = molecular target: T1, human KDR; assay: FACS titration of purified antibody on HUVEC cells (FACS Kd)
Experimental: The binding affinities of the purified antibodies for endogenously-expressed KDR in HUVEC cells was measured. HUVEC cells were seeded at 150,000 cells/well and incubated with titrations of purified antibody for 4 hours at 4° C. The cells were then washed and incubated with goat anti-human IgG-Fc-Cy5+5 μg/mL 7-Amino-Actinomycin (7AAD) for 30 minutes at 4° C. Bound KDR was detected using FACS analysis.

[14] = molecular target: T1, human KDR; assay: FACS competition on 293T/human KDR transfectants; antibody 5 ug/mL first, then competitor VEGF165 50 ng/mL; bound VEGF165 detected
Experimental: (§3) Transfected cells were then seeded at 50,000 cells/well and incubated with 5 μg/mL of candidate antibody for one hour at 4° C. […] After washing, the cells were incubated with Cy5-conjugated rabbit anti-goat antibody plus 7AAD for 15 minutes at 4° C.

[15] = molecular target: T1, human KDR; assay: FACS competition on 293T/human KDR transfectants; antibody 5 ug/mL first, then competitor VEGF165 50 ng/mL; inhibition of VEGF binding
Experimental: as §3

[16] = molecular target: T1, human KDR; assay: cell-based or functional assay; remark: listed apart in the source

T2 sequence (P35918 20-762 limits assumed): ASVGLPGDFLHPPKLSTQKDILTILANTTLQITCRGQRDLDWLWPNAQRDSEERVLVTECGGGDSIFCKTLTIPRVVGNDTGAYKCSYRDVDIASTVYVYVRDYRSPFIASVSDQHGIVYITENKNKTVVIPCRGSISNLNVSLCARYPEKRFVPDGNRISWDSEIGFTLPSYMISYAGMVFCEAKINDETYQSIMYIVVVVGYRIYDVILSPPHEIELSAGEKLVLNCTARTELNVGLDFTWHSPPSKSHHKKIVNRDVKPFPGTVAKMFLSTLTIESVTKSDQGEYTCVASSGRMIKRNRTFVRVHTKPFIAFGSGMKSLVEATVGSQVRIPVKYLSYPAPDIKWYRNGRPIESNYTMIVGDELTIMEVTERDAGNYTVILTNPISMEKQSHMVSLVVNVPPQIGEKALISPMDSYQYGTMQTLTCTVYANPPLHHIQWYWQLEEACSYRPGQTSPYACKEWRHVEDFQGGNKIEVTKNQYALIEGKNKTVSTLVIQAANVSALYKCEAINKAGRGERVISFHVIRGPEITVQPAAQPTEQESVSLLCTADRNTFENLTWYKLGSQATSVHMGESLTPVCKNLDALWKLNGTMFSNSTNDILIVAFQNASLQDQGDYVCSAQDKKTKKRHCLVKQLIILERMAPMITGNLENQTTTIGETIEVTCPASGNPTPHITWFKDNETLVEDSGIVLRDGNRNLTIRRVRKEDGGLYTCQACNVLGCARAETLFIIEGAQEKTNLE
T4 sequence (P35968 328-764): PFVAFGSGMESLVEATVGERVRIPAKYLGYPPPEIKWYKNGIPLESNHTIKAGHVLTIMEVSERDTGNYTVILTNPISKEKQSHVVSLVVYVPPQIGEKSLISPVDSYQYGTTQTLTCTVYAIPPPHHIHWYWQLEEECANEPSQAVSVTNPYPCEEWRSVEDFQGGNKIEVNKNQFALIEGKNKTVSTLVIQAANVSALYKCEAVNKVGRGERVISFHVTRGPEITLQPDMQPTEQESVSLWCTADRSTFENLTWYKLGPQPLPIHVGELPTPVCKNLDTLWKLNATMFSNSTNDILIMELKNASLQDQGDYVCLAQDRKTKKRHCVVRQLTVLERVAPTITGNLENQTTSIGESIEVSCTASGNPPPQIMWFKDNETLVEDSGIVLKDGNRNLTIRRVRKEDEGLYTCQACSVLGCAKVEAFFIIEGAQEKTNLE
T3 sequence (P35968 20-764): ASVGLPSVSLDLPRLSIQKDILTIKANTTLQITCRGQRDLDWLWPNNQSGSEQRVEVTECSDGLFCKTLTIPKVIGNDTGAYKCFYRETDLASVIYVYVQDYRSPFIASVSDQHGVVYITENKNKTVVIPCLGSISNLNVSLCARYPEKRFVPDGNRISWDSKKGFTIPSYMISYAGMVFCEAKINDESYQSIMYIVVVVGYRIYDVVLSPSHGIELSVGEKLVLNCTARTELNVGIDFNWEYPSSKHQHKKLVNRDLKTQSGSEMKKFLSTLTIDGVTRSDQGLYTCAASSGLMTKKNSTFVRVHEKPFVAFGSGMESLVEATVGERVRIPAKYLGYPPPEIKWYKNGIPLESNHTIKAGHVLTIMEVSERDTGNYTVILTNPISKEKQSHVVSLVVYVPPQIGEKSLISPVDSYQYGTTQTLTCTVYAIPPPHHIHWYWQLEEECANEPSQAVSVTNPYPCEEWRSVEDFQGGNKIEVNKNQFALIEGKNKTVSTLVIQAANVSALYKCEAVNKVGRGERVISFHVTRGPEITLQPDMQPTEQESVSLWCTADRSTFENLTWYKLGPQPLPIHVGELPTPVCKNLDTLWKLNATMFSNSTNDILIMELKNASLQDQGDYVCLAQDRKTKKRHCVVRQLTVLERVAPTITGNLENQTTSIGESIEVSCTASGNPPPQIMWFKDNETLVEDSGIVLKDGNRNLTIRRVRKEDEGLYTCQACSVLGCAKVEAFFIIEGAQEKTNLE
T5 sequence (A0A2K5VE63 entry or part of it): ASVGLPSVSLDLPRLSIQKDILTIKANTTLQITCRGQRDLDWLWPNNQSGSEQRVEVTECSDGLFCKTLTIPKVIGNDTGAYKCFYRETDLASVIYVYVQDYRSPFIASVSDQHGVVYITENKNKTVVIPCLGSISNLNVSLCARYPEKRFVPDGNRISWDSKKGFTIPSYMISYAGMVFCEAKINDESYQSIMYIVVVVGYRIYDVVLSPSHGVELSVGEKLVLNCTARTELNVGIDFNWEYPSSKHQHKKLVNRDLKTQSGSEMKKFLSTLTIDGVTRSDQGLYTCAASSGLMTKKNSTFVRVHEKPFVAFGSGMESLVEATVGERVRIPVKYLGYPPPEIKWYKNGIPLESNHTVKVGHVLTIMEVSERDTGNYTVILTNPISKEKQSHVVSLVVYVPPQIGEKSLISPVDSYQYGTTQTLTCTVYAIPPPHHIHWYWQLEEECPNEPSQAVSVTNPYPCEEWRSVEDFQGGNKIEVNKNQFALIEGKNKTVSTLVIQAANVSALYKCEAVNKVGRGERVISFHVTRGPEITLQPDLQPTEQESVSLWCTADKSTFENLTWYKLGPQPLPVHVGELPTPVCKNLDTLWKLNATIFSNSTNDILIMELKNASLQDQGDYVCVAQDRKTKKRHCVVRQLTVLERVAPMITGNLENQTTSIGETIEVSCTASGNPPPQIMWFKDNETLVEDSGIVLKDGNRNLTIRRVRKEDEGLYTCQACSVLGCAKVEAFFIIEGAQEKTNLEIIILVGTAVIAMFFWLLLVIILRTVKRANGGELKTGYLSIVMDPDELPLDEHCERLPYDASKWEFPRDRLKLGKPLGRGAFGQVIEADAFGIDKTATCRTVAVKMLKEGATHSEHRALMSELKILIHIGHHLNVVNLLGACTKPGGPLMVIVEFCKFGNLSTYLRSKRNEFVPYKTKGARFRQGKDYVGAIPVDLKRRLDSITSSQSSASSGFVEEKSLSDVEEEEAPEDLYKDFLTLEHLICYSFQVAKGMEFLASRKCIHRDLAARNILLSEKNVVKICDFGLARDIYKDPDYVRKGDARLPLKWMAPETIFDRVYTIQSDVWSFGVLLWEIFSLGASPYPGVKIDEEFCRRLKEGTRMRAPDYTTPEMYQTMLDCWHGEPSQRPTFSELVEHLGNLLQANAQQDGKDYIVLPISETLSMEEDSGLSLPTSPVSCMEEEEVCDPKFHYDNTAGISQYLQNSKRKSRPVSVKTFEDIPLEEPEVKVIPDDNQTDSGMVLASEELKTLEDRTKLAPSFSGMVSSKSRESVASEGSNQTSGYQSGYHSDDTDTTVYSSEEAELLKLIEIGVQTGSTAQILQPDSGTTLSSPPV
T1 sequence (P35968 20-1356): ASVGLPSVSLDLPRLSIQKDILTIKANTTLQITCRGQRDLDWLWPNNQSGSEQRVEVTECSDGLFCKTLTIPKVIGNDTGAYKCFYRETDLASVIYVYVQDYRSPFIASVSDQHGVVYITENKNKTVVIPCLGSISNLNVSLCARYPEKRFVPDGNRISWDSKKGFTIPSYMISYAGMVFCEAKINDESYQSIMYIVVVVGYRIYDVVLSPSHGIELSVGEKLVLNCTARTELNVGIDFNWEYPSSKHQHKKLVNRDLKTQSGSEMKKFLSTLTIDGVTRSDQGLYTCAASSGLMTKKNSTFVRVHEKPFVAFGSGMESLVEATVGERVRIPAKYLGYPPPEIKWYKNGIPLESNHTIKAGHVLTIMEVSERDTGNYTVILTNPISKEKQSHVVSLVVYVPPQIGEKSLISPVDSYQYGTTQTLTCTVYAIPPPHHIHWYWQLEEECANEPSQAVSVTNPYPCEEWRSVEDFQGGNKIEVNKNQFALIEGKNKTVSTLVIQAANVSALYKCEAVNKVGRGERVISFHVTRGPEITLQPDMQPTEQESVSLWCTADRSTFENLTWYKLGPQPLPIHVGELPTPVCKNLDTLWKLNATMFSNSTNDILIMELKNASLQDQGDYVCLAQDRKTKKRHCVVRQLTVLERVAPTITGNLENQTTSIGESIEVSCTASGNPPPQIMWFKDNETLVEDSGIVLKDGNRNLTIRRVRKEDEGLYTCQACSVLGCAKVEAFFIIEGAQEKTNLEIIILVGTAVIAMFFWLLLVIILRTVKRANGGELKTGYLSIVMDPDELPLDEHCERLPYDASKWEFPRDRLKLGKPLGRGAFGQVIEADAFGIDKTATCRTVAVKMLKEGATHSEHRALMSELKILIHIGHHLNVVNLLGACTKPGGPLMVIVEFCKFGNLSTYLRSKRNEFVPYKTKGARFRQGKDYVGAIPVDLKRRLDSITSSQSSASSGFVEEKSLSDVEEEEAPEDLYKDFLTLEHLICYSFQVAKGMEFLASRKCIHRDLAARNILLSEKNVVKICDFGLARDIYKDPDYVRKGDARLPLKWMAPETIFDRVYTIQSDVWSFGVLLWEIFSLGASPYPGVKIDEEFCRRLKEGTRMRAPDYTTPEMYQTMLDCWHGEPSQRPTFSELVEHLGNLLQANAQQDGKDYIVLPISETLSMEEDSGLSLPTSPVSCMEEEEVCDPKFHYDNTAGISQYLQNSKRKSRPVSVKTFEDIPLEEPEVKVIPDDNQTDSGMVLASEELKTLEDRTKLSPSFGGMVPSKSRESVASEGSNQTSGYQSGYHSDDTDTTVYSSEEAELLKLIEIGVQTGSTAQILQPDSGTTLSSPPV

Binder | KDR tyrosine phosphorylation in HUVEC, EC50 (nM), Average [1] [nM] | KDR tyrosine phosphorylation in HUVEC, EC50 (nM), N = 1 [1] [nM] | KDR tyrosine phosphorylation in HUVEC, EC50 (nM), N = 2 [1] [nM] | KDR tyrosine phosphorylation in HUVEC, Maximum Inhibition at 100 nM (% Inhibition), Average [1] [%] | KDR tyrosine phosphorylation in HUVEC, Maximum Inhibition at 100 nM (% Inhibition), N = 1 [1] [%] | KDR tyrosine phosphorylation in HUVEC, Maximum Inhibition at 100 nM (% Inhibition), N = 2 [1] [%] | HUVEC survival, Maximum Inhibition at 50 nM (% Inhibition), Average [2] [%] | HUVEC survival, Maximum Inhibition at 50 nM (% Inhibition), N = 1 [2] [%] | HUVEC survival, Maximum Inhibition at 50 nM (% Inhibition), N = 2 [2] [%] | ELISA reading [3] | ELISA reading [5] | ELISA reading [7] | ELISA reading [8] | ELISA reading [9] | ELISA reading [10] | FACS Geometric Mean Fluorescence [11] | ELISA reading [12] | Kd [13] [nM] | FACS Geometric Mean Fluorescence (bound VEGF165) [14] | % Inhibition [15] [%] | further results
27D10 (antibody, V domains shown, Fully human monoclonal antibody from a XenoMouse hybridoma (IgG2 or IgG4 strain), purified) VH: QLQLQESGPGLVKPSETLSLTCTVSGGSISSRSDYWGWIRQPPGKGLEWIGTIYYSGSTFYNPSLKSRVTISVDTSKNQFSLKLSSVTAADTAVYYCARQQLVLYYFDYWGQGTLVTVSS VL: not shown | 1.9 | 1.6 | 2.3 | 72 | 70 | 75 | 89 | 93 | 85 | 2.14 | 1.36 | 0.187 | 0.087 | 0.076 | 0.086 | 89.4 | 0.073 | 1.9 | 111 | 15 | ELISA reading [4]: 1.48; ELISA reading [6]: 0.537
29D4 (antibody, V domains shown, Fully human monoclonal antibody from a XenoMouse hybridoma (IgG2 or IgG4 strain), purified) VH: QLQLQESGPGLVKPSETLSLTCTVSGGSISSRSNYWGWIRQPPGKGLEWIGTIYYSGHTYYNPSLKSRVSISVDTSKNQFSLKLSSVTATDTALYYCARQQLVLYYFEYWGQGTLVTVSS VL: not shown | 1.9 | 2 | 1.9 | 75 | 74 | 77 | 92 | 89 | 95 | 3.29 | 2.15 | 0.096 | 0.089 | 0.082 | 0.078 | 115 | 0.08 | 1 | 116 | 11 | 6-keto Prostaglandin F1α release, EC50 (nM), Average [16]: 3.2 nM; 6-keto Prostaglandin F1α release, EC50 (nM), N = 1 [16]: 3.2 nM; 6-keto Prostaglandin F1α release, EC50 (nM), N = 2 [16]: 3.2 nM; 6-keto Prostaglandin F1α release, Maximum Inhibition (% Inhibition), Average [16]: 56%; 6-keto Prostaglandin F1α release, Maximum Inhibition (% Inhibition), N = 1 (200 nM) [16]: 45%; 6-keto Prostaglandin F1α release, Maximum Inhibition (% Inhibition), N = 2 (333 nM) [16]: 67%; ELISA reading [4]: 2.59; ELISA reading [6]: 1.17
21H6 (antibody, V domains shown, Fully human monoclonal antibody from a XenoMouse hybridoma, purified) VH: QVQLVESGGGLVKPGGSLRLSCAASGFTFSDYYMSWIRQAPGKGLEWVSYISNSGITIYYADSVKGRFTISRDNAKNSLYLQMNSLRAGDTAVYYCAREEWYSSRWYRNFDYWGQGTLVTVSS VL: DIQMTQFSSSLSASVGDRVTITCRASQSISRYLNWYQQKPGKAPKLLIYAASSLQSGVPSRFNGSGSGTDFTLTISSLQPEDFATYYCQQSYSAPLTFGGGTKVEIK | 6.9 | 7.1 | 6.7 | 82 | 81 | 84 | 96 | 96 | 96 |  | 1.46 | 0.139 | 0.087 | 0.087 | 0.074 | 102 | 0.074 | 17.9 | 133 | -3 | 6-keto Prostaglandin F1α release, EC50 (nM), Average [16]: 6.3 nM; 6-keto Prostaglandin F1α release, EC50 (nM), N = 1 [16]: 7.3 nM; 6-keto Prostaglandin F1α release, EC50 (nM), N = 2 [16]: 5.4 nM; 6-keto Prostaglandin F1α release, Maximum Inhibition (% Inhibition), Average [16]: 77%; 6-keto Prostaglandin F1α release, Maximum Inhibition (% Inhibition), N = 1 (200 nM) [16]: 80%; 6-keto Prostaglandin F1α release, Maximum Inhibition (% Inhibition), N = 2 (333 nM) [16]: 75%
